In IntAct's records for PubMed 29039417:

B1: BBSome complex member BBS4 (Homo sapiens), Q96RK4 (parent)
chain: MAEERVATRTQFPVSTESQKPRQKKAPEFPILEKQNWLIHLHYIRKDYEACKAVIKEQLQETQGLCEYAIYVQALIFRLEGNIQESLELFQTCAVLSPQSADNLKQVARSLFLLGKHKAAIEVYNEAAKLNQKDWEISHNLGVCYIYLKQFNKAQDQLHNALNLNRHDLTYIMLGKIHLLEGDLDKAIEVYKKAVEFSPENTELLTTLGLLYLQLGIYQKAFEHLGNALTYDPTNYKAILAAGSMMQTHGDFDVALTKYRVVACAVPESPPLWNNIGMCFFGKKKYVAAISCLKRANYLAPFDWKILYNLGLVHLTMQQYASAFHFLSAAINFQPKMGELYMLLAVALTNLEDIENAKRAYAEAVHLDKCNPLVNLNYAVLLYNQGEKKNALAQYQEMEKKVSLLKDNSSLEFDSEMVEMAQKLGAALQVGEALVWTKPVKDPKSKHQTTSTSKPASFQQPLGSNQALGQAMSSAAAYRTLPSGAGGTSQFTKPPSLPLEPEPAVESSPTETSEQIREK
partner: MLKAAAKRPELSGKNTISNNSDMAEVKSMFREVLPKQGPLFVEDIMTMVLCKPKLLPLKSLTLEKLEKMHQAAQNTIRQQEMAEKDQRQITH

Variants of: B1
Settings: with bbip1_human BBIP1, A8MTZ0

Row | Variant | effect of a mutation on the interaction
1 | MAEERVATRTQFPVSTESQKPRQKKAPEFPILEKQNWLIHLHYIRKDYEACKAVIKEQLQETQGLCEYAIYVQALIFRLEGNIQESLELFQTCAVLSPQSADNLKQVARSLFLLGKHKAAIEVYNEAAKLNQKDWEISHNLGVCYIYLKQFNKAQDQLHNALNLNRHDLTYIMLGKIHLLEGDLDKAIEVYKKAVEFSPENTELLTTLGLLYLQLGIYQKAFEHLGNALTYDPTNYKAILAAGSMMQTHGDFDVALTKYRVVACAVPESPPLWNNIGMCFFGKKKYVAAISCLKRANYLAPFDWKILYNLGLVHETMQQYASAFHFLSAAINFQPKMGELYMLLAVALTNLEDIENAKRAYAEAVHLDKCNPLVNLNYAVLLYNQGEKKNALAQYQEMEKKVSLLKDNSSLEFDSEMVEMAQKLGAALQVGEALVWTKPVKDPKSKHQTTSTSKPASFQQPLGSNQALGQAMSSAAAYRTLPSGAGGTSQFTKPPSLPLEPEPAVESSPTETSEQIREK [L315E] | with no effect
2 | MAEERVATRTQFPVSTESQKPRQKKAPEFPILEKQNWLIHLHYIRKDYEACKAVIKEQLQETQGLCEYAIYVQALIFRLEGNIQESLELFQTCAVLSPQSADNLKQVARSLFLLGKHKAAIEVYNEAAKLNQKDWEISHNLGVCYIYLKQFNKAQDQLHNALNLNRHDLTYIMLGKIHLLEGDLDKAIEVYKKAVEFSPENTELLTTLGLLYLQLGIYQKAFEHLGNALTYDPTNYKAILAAGSMMQTHGDFDVALTKYRVVACAVPESPPLWNNIGMCFFGKKKYVAAISCLKRANYLKPFDWKILYNLGLVHLTMQQYASAFHFLSAAINFQPKMGELYMLLAVALTNLEDIENAKRAYAEAVHLDKCNPLVNLNYAVLLYNQGEKKNALAQYQEMEKKVSLLKDNSSLEFDSEMVEMAQKLGAALQVGEALVWTKPVKDPKSKHQTTSTSKPASFQQPLGSNQALGQAMSSAAAYRTLPSGAGGTSQFTKPPSLPLEPEPAVESSPTETSEQIREK [A300K] | with no effect
3 | MAEERVATRTQFPVSTESQKPRQKKAPEFPILEKQNWLIHLHYIRKDYEACKAVIKEQLQETQGLCEYAIYVQALIFRLEGNIQESLELFQTCAVLSPQSADNLKQVARSLFLLGKHKAAIEVYNEAAKLNQKDWEISHNLGVCYIYLKQFNKAQDQLHNALNLNRHDLTYIMLGKIHLLEGDLDKAIEVYKKAVEFSPENTELLTTLGLLYLQLGIYQKAFEHLGNALTYDPTNYKAILAAGSMMQTHGDFDVALTKYRVVACAVPESPPLWNNIGMCFFGKKKYVAAISCLKRANYLAPFDWKILYNLGLVHLTMQQYASAFHFLSAAINFQPKMGELYMLLAVALTNLEDIEEAKRAYAEAVHLDKCNPLVNLNYAVLLYNQGEKKNALAQYQEMEKKVSLLKDNSSLEFDSEMVEMAQKLGAALQVGEALVWTKPVKDPKSKHQTTSTSKPASFQQPLGSNQALGQAMSSAAAYRTLPSGAGGTSQFTKPPSLPLEPEPAVESSPTETSEQIREK [N356E] | with no effect
4 | MAEERVATRTQFPVSTESQKPRQKKAPEFPILEKQNWLIHLHYIRKDYEACKAVIKEQLQETQGLCEYAIYVQALIFRLEGNIQESLELFQTCAVLSPQSADNLKQVARSLFLLGKHKAAIEVYNEAAKLNQKDWEISHNLGVCYIYLKQFNKAQDQLHNALNLNRHDLTYIMLGKIHLLEGDLDKAIEVYKKAVEFSPENTELLTTLGLLYLQLGIYQKAFEHLGNALTYDPTNYKAILAAGSMMQTHGDFDVALTKYRVVACAVPESPELWNNIGMCFFGKKKYVAAISCLKRANYLAPFDWKILYNLGLVHLTMQQYASAFHFLSAAINFQPKMGELYMLLAVALTNLEDIENAKRAYAEAVHLDKCNPLVNLNYAVLLYNQGEKKNALAQYQEMEKKVSLLKDNSSLEFDSEMVEMAQKLGAALQVGEALVWTKPVKDPKSKHQTTSTSKPASFQQPLGSNQALGQAMSSAAAYRTLPSGAGGTSQFTKPPSLPLEPEPAVESSPTETSEQIREK [P271E] | with no effect
5 | MAEERVATRTQFPVSTESQKPRQKKAPEFPILEKQNWLIHLHYIRKDYEACKAVIKEQLQETQGLCEYAIYVQALIFRLEGNIQESLELFQTCAVLSPQSADNLKQVARSLFLLGKHKAAIEVYNEAAKLNQKDWEISHNLGVCYIYLKQFNKAQDQLHNALNLNRHDLTYIMLGKIHLLEGDLDKAIEVYKKAVEFSPENTELLTTLGLLYLQLGIYQKAFEHLGNALTYDPTNYKAILAAGSMMQTHGDFDVALTKYRVVACAVPESPPLWNNIGMCFFGKKKYVAAISCLKRANYLAPFDWKILYNLGLVHLTMQQYASAFHFLSAAINFQPKMGELYMLLAVALTNLEDIENAKRAYAEAVHLDKCNPLVNLNYAVLLYNQGEKKNALAQYQEMEKKVSLLKDNSSLEFDSEMVEMAQKLGAALQVGEALVWTKPVKDPKSKHQTTSTSKPASFQQPLGSNQALGQAMSSAAAYRTLPSGAGGTSQFTKPPSLPLEPAPAVESSPTETSEQIREK [E502A] | with no effect
6 | MAEERVATRTQFPVSTESQKPRQKKAPEFPILEKQNWLIHLHYIRKDYEACKAVIKEQLQETQGLCEYAIYVQALIFRLEGNIQESLELFQTCAVLSPQSADNLKQVARSLFLLGKHKAAIEVYNEAAKLNQKDWEISHNLGVCYIYLKQFNKAQDQLHNALNLNRHDLTYIMLGKIHLLEGDLDKAIEVYKKAVEFSPENTELLTTLGLLYLQLGIYQKAFEHLGNALTYDPTNYKAILAAGSMMQTHGDFDVALTKYRVVACAVPESPPLWNNIGMCFFGKKKYVAAISCLKRANYLAPFDWKILYNLGLVHLTMQQYASAFHFLSAAINFQPKMGELYMLLAVALTNLEDIENAKRAYAEAVHLDKCNPLVNLNYAVLLYNQGEKKNALAQYQEMEKKVSLLKDNSSLEFDSEMVEMAQKLGAALQVGEALVWTKPVKDPKSKHQTTSTSKPASFQQPLGSNQALGQAMSSAAAYRTLPSGAGGTSQFTKPPSLPLEPEPAVESSPTETAEQIREK [S513A] | with no effect
7 | MAEERVATRTQFPVSTESQKPRQKKAPEFPILEKQNWLIHLHYIRKDYEACKAVIKEQLQETQGLCEYAIYVQALIFRLEGNIQESLELFQTCAVLSPQSADNLKQVARSLFLLGKHKAAIEVYNEAAKLNQKDWEISHNLGVCYIYLKQFNKAQDQLHNALNLNRHDLTYIMLGKIHLLEGDLDKAIEVYKKAVEFSPENTELLTTLGLLYLQLGIYQKAFEHLGNALTYDPTNYKAILAAGSMMQTHGDFDVALTKYRVVACAVPESPPLWNNIGMCFSGKKKYVAAISCLKRANYLAPFDWKILYNLGLVHLTMQQYASAFHFLSAAINFQPKMGELYMLLAVALTNLEDIENAKRAYAEAVHLDKCNPLVNLNYAVLLYNQGEKKNALAQYQEMEKKVSLLKDNSSLEFDSEMVEMAQKLGAALQVGEALVWTKPVKDPKSKHQTTSTSKPASFQQPLGSNQALGQAMSSAAAYRTLPSGAGGTSQFTKPPSLPLEPEPAVESSPTETSEQIREK [F281S] | disrupting interaction strength
8 | MAEERVATRTQFPVSTESQKPRQKKAPEFPILEKQNWLIHLHYIRKDYEACKAVIKEQLQETQGLCEYAIYVQALIFRLEGNIQESLELFQTCAVLSPQSADNLKQVARSLFLLGKHKAAIEVYNEAAKLNQKDWEISHNLGVCYIYLKQFNKAQDQLHNALNLNRHDLTYIMLGKIHLLEGDLDKAIEVYKKAVEFSPENTELLTTLGLLYLQLGIYQKAFEHLGNALTYDPTNYKAILAAGSMMQTHGDFDVALTKYRVVACAVPESPPLWNNIGMCFFGKKKYVAAISCLKRANYLAPFDWKILYNLGLVHLTMQQYASAFHFLSAAINFQPKMGELYMLLAVALTNLEDIENAKRAYAEAVHLDKCNPLVNLNYAVLLYNQGEKKNALAQYQEMEKKVSLLKDNSSLEFDSEMVEMAQKLGAALQVGEALVWTKPVKDPKSKHQTTSTSKPASFQQPLGSNQALGQAMSSAAAYRTLPSGEGGTSQFTKPPSLPLEPEPAVESSPTETSEQIREK [A485E] | with no effect
9 | MAEERVATRTQFPVSTESQKPRQKKAPEFPILEKQNWLIHLHYIRKDYEACKAVIKEQLQETQGLCEYAIYVQALIFRLEGNIQESLELFQTCAVLSPQSADNLKQVARSLFLLGKHKAAIEVYNEAAKLNQKDWEISHNLGVCYIYLKQFNKAQDQLHNALNLNRHDLTYIMLGKIHLLEGDLDKAIEVYKKAVEFSPENTELLTTLGLLYLQLGIYQKAFEHLGNALTYDPTNYKAILAAGSMMQTHGDFDVALTKYRVVACAVPESPPLWNNIGMCFFGKKKYVAAISCLKRANYLAPFDWKILYNLGLVHLTMQQYASAFHFLSAAINFQPKMGELYMLLAVALTNLEDIENAKRAYAEAVHLDKCNPLVNLNYAVLLYNQGEKKNALAQYQEMEKKVSLLKDNSSLEFDSEMVEMAQKLGAALQVGEALVWTKPVKDPKSKHQTTSTSKPASFQQPLGSNQALGQAMSSAAAYRTLPSGAGATSQFTKPPSLPLEPEPAVESSPTETSEQIREK [G487A] | with no effect
10 | MAEERVATRTQFPVSTESQKPRQKKAPEFPILEKQNWLIHLHYIRKDYEACKAVIKEQLQETQGLCEYAIYVQALIFRLEGNIQESLELFQTCAVLSPQSADNLKQVARSLFLLGKHKAAIEVYNEAAKLNQKDWEISHNLGVCYIYLKQFNKAQDQLHNALNLNRHDLTYIMLGKIHLLEGDLDKAIEVYKKAVEFSPENTELLTTLGLLYLQLGIYQKAFEHLGNALTYDPTNYKAILAAGSMMQTHGDFDVALTKYRVVACAVPESPPLWNNIGMCFFGKKKYVAAISCLKRANYLAPFDWKILYNLGLVHLTMQQYASAFHFLSAAINFQPKMGELYMLLAVALTNLEDIENAKRAYAEAVHLDKCNPLVNLNYAVLLYNQGEKKNALAQYQEMEKKVSLLKDNSSLEFDSEMVEMAQKLGAALQVGEALVWTKPVKDPKSKHQTTSTSKPASFQQPLGSNQALGQAMSSAAKYRTLPSGAGGTSQFTKPPSLPLEPEPAVESSPTETSEQIREK [A477K] | with no effect
11 | MAEERVATRTQFPVSTESQKPRQKKAPEFPILEKQNWLIHLHYIRKDYEACKAVIKEQLQETQGLCEYAIYVQALIFRLEGNIQESLELFQTCAVLSPQSADNLKQVARSLFLLGKHKAAIEVYNEAAKLNQKDWEISHNLGVCYIYLKQFNKAQDQLHNALNLNRHDLTYIMLGKIHLLEGDLDKAIEVYKKAVEFSPENTELLTTLGLLYLQLGIYQKAFEHLGNALTYDPTNYKAILAAGSMMQTHGDFDVALTKYRVVACAVPESPPLWNNIGMCFFGKKKYVAAISCLKRANYLAPFDWKILYNLGLVHLTMQQYASAFHFLSAAINFQPKMGELYMLLAVALTNLEDIENAKRAYAEAVHLDKCNPLVNLNYAVLLYNQGEKKNALAQYQEMEKKVSLLKDNSSLEFDSEMVEMAQKLGAALQVGEALVWTKPVKDPKSKHQTTSTSKPASFQQPLGSNKALGQAMSSAAAYRTLPSGAGGTSQFTKPPSLPLEPEPAVESSPTETSEQIREK [Q466K] | with no effect
12 | MAEERVATRTQFPVSTESQKPRQKKAPEFPILEKQNWLIHLHYIRKDYEACKAVIKEQLQETQGLCEYAIYVQALIFRLEGNIQESLELFQTCAVLSPQSADNLKQVARSLFLLGKHKAAIEVYNEAAKLNQKDWEISHNLGVCYIYLKQFNKAQDQLHNALNLNRHDLTYIMLGKIHLLEGDLDKAIEVYKKAVEFSPENTELLTTLGLLYLQLGIYQKAFEHLGNALTYDPTNYKAILAAGSMMQTHGDFDVALTKYRVVACAVPESPPLWNNIGMCFFGKKKYVAAISCLKRANYLAPFDWKILYNLGLVHLTMQQYASAFHFLSAAINFQPKMGELYMLLAVALTNLEDIENAKRAYAEAVHLDKCNPLVNLNYAVLLYNQGEKKNALAQYQEMEKKVSLLKDNSSLEFDSEMVEMAQKLGAALQVGEALVWTKPVKDPKSKHQTTSTSKPASFQQPLGSNQALGQAMSSAAAYRTLPSGAGGTSQFTKPPSLPLEKEPAVESSPTETSEQIREK [P501K] | with no effect
